According to paper PMC11417369, “DNA sequence and chromatin differentiate sequence-specific transcription factor binding in the human malaria parasite Plasmodium falciparum”:

B1: GTGCAC_site10298 (dsDNA)
DNA 1: ATTTATTTCTTGTTAGTGCACTTTCTTTGGTAAAAT
DNA 2: ATTTTACCAAAGAAAGTGCACTAACAAGAAATAAAT
B2: GTGCAC_site9803 (dsDNA)
DNA 1: GTAGTAATAAATCTAGTGCATTATATATAACAAAAA
DNA 2: TTTTTGTTATATATAATGCACTAGATTTATTACTAC
B3: GTGCAC_site10332 (dsDNA)
DNA 1: ATTACATTAATAAGAGTGCATTATATAAGTTTTATG
DNA 2: CATAAAACTTATATAATGCACTCTTATTAATGTAAT
B4: GTGCAC_site9852 (dsDNA)
DNA 1: ATAATATATAATATAGTGCATTATTTATTAATTAAT
DNA 2: ATTAATTAATAAATAATGCACTATATTATATATTAT
B5: GTGCAC_site9883 (dsDNA)
DNA 1: ATTAAATGCAGTTCGGTGCATTAAGGTTATGATGAA
DNA 2: TTCATCATAACCTTAATGCACCGAACTGCATTTAAT
B6: GTGCAC_site9836 (dsDNA)
DNA 1: ATTATATACATTTTAGTGCATTACATAATAATATAA
DNA 2: TTATATTATTATGTAATGCACTAAAATGTATATAAT
B7: GTGCAC_site10028 (dsDNA)
DNA 1: ATTATAATTACTCTAGTGCATTATAAATATGAATAA
DNA 2: TTATTCATATTTATAATGCACTAGAGTAATTATAAT
B8: GTGCAC_site10551 (dsDNA)
DNA 1: ATATATAAAAATTAGGTGCATTAAATTAAAATATAT
DNA 2: ATATATTTTAATTTAATGCACCTAATTTTTATATAT
B9: GTGCAC_site10036 (dsDNA)
DNA 1: TCATAGGGGTAGAAGGTGCAATAAAAAAGAAGAAAA
DNA 2: TTTTCTTCTTTTTTATTGCACCTTCTACCCCTATGA
B10: GTGCAC_site10158 (dsDNA)
DNA 1: AGGTTTTCTTAAATAGTGCATTATAACAAAAATAAA
DNA 2: TTTATTTTTGTTATAATGCACTATTTAAGAAAACCT
B11: GTGCAC_site10279 (dsDNA)
DNA 1: GCCAATAAAGATGTGGTGCATTATATATATATATAT
DNA 2: ATATATATATATATAATGCACCACATCTTTATTGGC
B12: GTGCAC_site9443 (dsDNA)
DNA 1: ACCATATATTAAAAAGTGCATTAAATATATAAATAT
DNA 2: ATATTTATATATTTAATGCACTTTTTAATATATGGT
B13: GTGCAC_site10763 (dsDNA)
DNA 1: AGGATAAAAGTTATGGTGCATTAACCTATTTAAATA
DNA 2: TATTTAAATAGGTTAATGCACCATAACTTTTATCCT
B14: GTGCAC_site10150 (dsDNA)
DNA 1: TTTCCCTCAAATAAAGTGCATTATGATTTTAATTTA
DNA 2: TAAATTAAAATCATAATGCACTTTATTTGAGGGAAA
B15: GTGCAC_site9463 (dsDNA)
DNA 1: ATTAAAAAATCCATAGTGCACTACGATAGGTTCCGA
DNA 2: TCGGAACCTATCGTAGTGCACTATGGATTTTTTAAT
B16: GTGCAC_site9879 (dsDNA)
DNA 1: TTTTTATTTTTAGTAGTGCATTAATCATATGGTCAT
DNA 2: ATGACCATATGATTAATGCACTACTAAAAATAAAAA
B17: GTGCAC_site10447 (dsDNA)
DNA 1: TAATGAGCGCTTGTAGTGCATTATATTCAAAAATAT
DNA 2: ATATTTTTGAATATAATGCACTACAAGCGCTCATTA
B18: GTGCAC_site9419 (dsDNA)
DNA 1: ATATAAAGTATGTTAGTGCACTTTTTTTTTTTTTTT
DNA 2: AAAAAAAAAAAAAAAGTGCACTAACATACTTTATAT
B19: GTGCAC_site9564 (dsDNA)
DNA 1: GAAAATTTAAAAAGAGTGCATTATATGTTTGAATAT
DNA 2: ATATTCAAACATATAATGCACTCTTTTTAAATTTTC
B20: GTGCAC_site9711 (dsDNA)
DNA 1: TTAAATTATTAGAGAGTGCATTATATATATTATACA
DNA 2: TGTATAATATATATAATGCACTCTCTAATAATTTAA
B21: GTGCAC_site9571 (dsDNA)
DNA 1: ATCATATTTATATTGGTGCATTATGCATGAAATTTA
DNA 2: TAAATTTCATGCATAATGCACCAATATAAATATGAT
B22: GTGCAC_site10160 (dsDNA)
DNA 1: ATTCATTTACCAATGGTGCAATATATTTTTATAATG
DNA 2: CATTATAAAAATATATTGCACCATTGGTAAATGAAT
B23: GTGCAC_site9607 (dsDNA)
DNA 1: TATTCAGGTCCAATGGTGCAATATATTTTTGTAATA
DNA 2: TATTACAAAAATATATTGCACCATTGGACCTGAATA
B24: GTGCAC_site9493 (dsDNA)
DNA 1: TAAAATTATTAATGAGTGCATTATAAAATCTATATA
DNA 2: TATATAGATTTTATAATGCACTCATTAATAATTTTA
B25: GTGCAC_site10703 (dsDNA)
DNA 1: TTTTTAATTTCAATGGTGCAGTAATAATATAATAGT
DNA 2: ACTATTATATTATTACTGCACCATTGAAATTAAAAA
B26: GTGCAC_site10233 (dsDNA)
DNA 1: TTTTTTAAATTTAAAGTGCATTATTATATATTTGTA
DNA 2: TACAAATATATAATAATGCACTTTAAATTTAAAAAA
B27: GTGCAC_site9773 (dsDNA)
DNA 1: TTAAAAATTATATAAGTGCATTAATATTTAGAACAA
DNA 2: TTGTTCTAAATATTAATGCACTTATATAATTTTTAA
B28: GTGCAC_site10132 (dsDNA)
DNA 1: AGTGTGTGTAATAAAGTGCATTAAAAATGACACGTA
DNA 2: TACGTGTCATTTTTAATGCACTTTATTACACACACT
B29: GTGCAC_site9437 (dsDNA)
DNA 1: CATTTTCATTTTAAGGTGCATTAATATTTATTTTAA
DNA 2: TTAAAATAAATATTAATGCACCTTAAAATGAAAATG
B30: GTGCAC_site10007 (dsDNA)
DNA 1: TTTCTTTTTTCTTCAGTGCATTAAAATTAACAAAAG
DNA 2: CTTTTGTTAATTTTAATGCACTGAAGAAAAAAGAAA
B31: GTGCAC_site9970 (dsDNA)
DNA 1: ACTGTAATATTGAAAGTGCATTAAAGTGTATATTAT
DNA 2: ATAATATACACTTTAATGCACTTTCAATATTACAGT
B32: GTGCAC_site10087 (dsDNA)
DNA 1: TGTCACTACAAATGAGTGCATTAAATAATTTGGAAA
DNA 2: TTTCCAAATTATTTAATGCACTCATTTGTAGTGACA

Biological target: AP2-I D3 (Plasmodium falciparum, UniProt Q8IJW6 910-1027)
Experiment: gcPBM; about 25 ug protein; PBS, 1% milk, 0.2 mg/ml BSA, salmon testes DNA, 0.03% Triton X-100
Conditions: tags: N-terminal GST (pGEX-4T-1), kept; label: surface-attached array probe

Binder	binding signal
B1	12.1 ln median PBM intensity, better of two orientations
B2	12 ln median PBM intensity, better of two orientations
B3	12.1 ln median PBM intensity, better of two orientations
B4	12 ln median PBM intensity, better of two orientations
B5	12.1 ln median PBM intensity, better of two orientations
B6	12.1 ln median PBM intensity, better of two orientations
B7	12 ln median PBM intensity, better of two orientations
B8	12 ln median PBM intensity, better of two orientations
B9	12 ln median PBM intensity, better of two orientations
B10	12.1 ln median PBM intensity, better of two orientations
B11	12.1 ln median PBM intensity, better of two orientations
B12	12 ln median PBM intensity, better of two orientations
B13	12.1 ln median PBM intensity, better of two orientations
B14	12 ln median PBM intensity, better of two orientations
B15	12.1 ln median PBM intensity, better of two orientations
B16	12.1 ln median PBM intensity, better of two orientations

Binder	binding signal
B17	12 ln median PBM intensity, better of two orientations
B18	12.1 ln median PBM intensity, better of two orientations
B19	12 ln median PBM intensity, better of two orientations
B20	12.1 ln median PBM intensity, better of two orientations
B21	12.1 ln median PBM intensity, better of two orientations
B22	12 ln median PBM intensity, better of two orientations
B23	12 ln median PBM intensity, better of two orientations
B24	12.1 ln median PBM intensity, better of two orientations
B25	12 ln median PBM intensity, better of two orientations
B26	12 ln median PBM intensity, better of two orientations
B27	12 ln median PBM intensity, better of two orientations
B28	12 ln median PBM intensity, better of two orientations
B29	12.1 ln median PBM intensity, better of two orientations
B30	12 ln median PBM intensity, better of two orientations
B31	12 ln median PBM intensity, better of two orientations
B32	12 ln median PBM intensity, better of two orientations
